Data as given in publication PMC4157730 (Journal of molecular biology, 2012).

Columns and labels:
AUC = target: the molecule itself; test: AUC
[1] = target: the molecule itself; test: negative staining transmission electron microscopy

B1: human apolipoprotein (apo) C-II (natural protein, UniProt P02655 23-101, looked up)
chain: TQQPQQDEMPSPTFLTQVKESLSSYWESAKTAAQNLYEKTYLPAVDEKLRDLYSKSTAAMSTYTGIFTDQVLSVLKGEE
AUC
  Ka: 3.27e+11 M⁻¹
[1]
  stoichiometry N: ~621 subunits
